Experiments:
[1] = biological target: sulfo-hirudin ([Leu1, Thr2]-hirudin with sulfotyrosine at position 63, expressed in E. coli) (UniProt P01050)
[2] = biological target: [Leu1, Thr2]-63-desulfo-hirudin (Lepirudin (Refludan)) (UniProt P01050)

human α-thrombin (Diapharma)
cleavage of the fluorogenic substrate by thrombin (fluorescence intensity over time) [1]: Cleavage of the fluorogenic substrate by thrombin, whose activity is inhibited to different degrees by sulfo-hirudin and desulfo-hirudin
cleavage of the fluorogenic substrate by thrombin (fluorescence intensity over time) [2]: Cleavage of the fluorogenic substrate by thrombin, whose activity is inhibited to different degrees by sulfo-hirudin and desulfo-hirudin
